Results from patent publication US20260125472A1 (HEFEI TG IMMUNOPHARMA, published 2026).

How the values were obtained:
CD3E&D protein [1] = target: T1, CD3E&D protein (UniProt P04234 22-105); assay: ELISA, coated CD3E&D protein, OD450 [panel B]
T1 construct: Purchased from Acro; also called CD3 E&D antigens; CD3E&D antigen protein
Experimental: In this example, the binding properties of the parental antibody Cross3 and the CD3 affinity-reduced antibody (the production method and the amino acid sequences of the heavy and light chains were shown in Example 1) were detected by ELISA. The CD3E&D protein was coated onto a 96-well plate by the inventors, and the strength of the signal after the addition of the antibody was used to determine the binding properties of the antibody and CD3E&D.
CD3E&D protein (purchased from Acro) was diluted to 2 μg/ml with PBS buffer, added to a 96-well plate at a volume of 100 μL/well, and placed at 4° C. overnight. The PBS buffer in the 96-well plate was aspirated, and the plate was washed 6 times with PBST (pH 7.2 PBS containing 0.1% Tween 20) buffer. Then, 200 μL/well PBS/10% BSA was added and incubated at 37° C. for 2 h for blocking. The blocking solution was removed, and the plate was washed six times with PBST. Then, the to-be-tested antibodies serially diluted with PBST/0.05% BSA, Cross3, Cross303, Cross307, Cross308, Cross309, Cross310, Cross311, Cross312, Cross313, Cross314, Cross316, Cross317, Cross318, Cross323, Cross325, Cross326, and control IgG1 (purchased from Bio-Tech) were added at 100 μL/well, and incubated at 37° C. for 1 h. The reaction system was removed, and the plate was washed 6 times with PBST. Then, the cells were incubated at 37° C. for 1 h with HRP (horseradish peroxidase)-labeled anti-human secondary antibody (Fab specific) (purchased from Sigma) serially diluted with PBST/0.05% BSA at 100 μL/well. The plate was washed six times with PBST, TMB (tetramethylbenzidine) was added at 80 μL/well and incubated at room temperature for 3 min. 4 M sulfuric acid was added at 80 μL/well to terminate the reaction. The absorbance was read at 450 nm using a microplate reader.

CD3 on CD8 T cells [2] = target: T2, CD3 on CD8 T cells (Homo sapiens (Human), UniProt P07766 23-207); assay: flow cytometry, CD8 T cells in PBMCs, MFI [panel B]
T2 construct: Native CD3 complex on CD8 T cells among PBMCs; also called T cells (PBMCs gated with anti-human CD8 antibody)
Experimental: PBMCs were diluted with PBS to 2×10⁶/mL and added to a 1.5 ml EP tube at a volume of 100 μL/tube, 10 μL/tube of goat serum was added thereto and incubated at 4° C. for 30 min for blocking. […] 1 mL of PBS was added to the EP tube, followed by centrifugation at 3500 rpm for 5 min at 4° C. The supernatant was discarded, and the cells were washed again with PBS. After centrifugation, the supernatant was discarded, and the cells were resuspended with 100 μl/tube PBS. 1 μl/tube Alexa-647-labeled goat anti-human secondary antibody (purchased from Jackson lab) and 0.5 μl/tube PerCP-Cy5.5-labeled anti-human CD8 antibody were added and incubated at 4° C. in the dark for 30 min. The cells were washed twice with PBS, and the supernatant was discarded after centrifugation. The cells were resuspended with […] of PBS and assayed using the flow cytometry.

CD3 on CD8 T cells [3] = target: T2, CD3 on CD8 T cells; assay: flow cytometry, CD8 T cells in PBMCs, binding ratio % [panel A]
How it was run: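 PBMCs at 2×10⁶/mL blocked with goat serum for 30 min at 4° C, then after washing stained for 30 min at 4° C in the dark with Alexa-647 goat anti-human secondary plus PerCP-Cy5.5 anti-CD8. Analysed by flow cytometry on CD8 T cells as binding ratio % and MFI.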

CD3E&D protein [4] = target: T1, CD3E&D protein; assay: SPR (Biacore 8K), antibody on CM5 chip, CD3 E&D antigen as analyte; set-up: Fold change: reference not given here
Experimental: In a Biacore 8K (Cytiva) system, the antibody was diluted to 10 μg/mL in HBS-EP running buffer and coupled to a CM5 chip (Cytiva) at a flow rate of 10 μL/min.

[5] = target: T3, PDL1 on A-375 melanoma cells, HCT-15 colorectal cancer cells and A549 lung cancer cells (UniProt Q9NZQ7 19-290, limits assumed); assay: flow cytometry, A549 cells, MFI [panel B]
T3 construct: whole, on cells
How it was run: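 Cells were blocked with goat serum at 4° C for 30 min, then incubated with serially diluted bispecific antibodies or hIgG1LALA control at 4° C for 30 min. Bound antibody was detected with Alexa-647 anti-human IgG (4° C, 30 min, dark) and read by flow cytometry.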

PDL1 protein = target: T4, PDL1 protein (UniProt Q9NZQ7 19-238); assay: ELISA, coated PDL1 protein, OD450 [panel A]
T4 construct: Bought recombinant protein
How it was run: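 PDL1 protein coated at 2 μg/ml overnight at 4 °C, blocked with PBS/10% BSA; serially diluted bispecific antibodies or control IgG1LALA bound 1 h at 37 °C. Detection with HRP anti-human Fab secondary antibody and TMB for 3 min, stopped with sulfuric acid, absorbance at 450 nm.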

CD3E&D protein [6] = target: T1, CD3E&D protein; assay: ELISA, coated CD3E&D protein, OD450 [panel A]
Source text: In this example, the binding properties of the CD3×Trop2 and CD3×PDL1 bispecific antibody (the production method and the amino acid sequences of the heavy and light chains were shown in Example 1) were detected by using ELISA. The CD3E&D, Trop2, or PDL1 protein was coated onto 96-well plates by inventors, and the strength of the signal after the addition of the antibody was used to determine the binding properties of the antibody and the corresponding protein.
(1) CD3E&D protein (purchased from Acro) was diluted to 2 μg/ml with PBS buffer, added to a 96-well plate at a volume of 100 μL/well, and placed at 4° C. overnight. The PBS buffer in the 96-well plate was aspirated, and the plate was washed 6 times with PBST (pH 7.2 PBS containing 0.1% Tween 20) buffer. Then, 200 μL/well PBS/10% BSA was added and incubated at 37° C. for 2 h for blocking. The blocking solution was removed, and the plate was washed 6 times with PBST. […] The absorbance was read at 450 nm using a microplate reader.

CD3 on CD8 T cells [7] = target: T2, CD3 on CD8 T cells; assay: flow cytometry, CD8 T cells in PBMCs, binding ratio % [panel A]; remark: listed apart in the source
Experimental: (1) PBMCs were diluted to 2×10⁶/ml with PBS and added to a 1.5 ml EP tube at 100 μl/tube, goat serum was added thereto at 10 μl/tube. The cells were blocked at 4° C. for 30 min. The serially diluted bispecific antibodies, Cross3×Trop2, Cross303×Trop2, Cross307×Trop2, Cross308×Trop2, Cross309×Trop2, Cross310×Trop2, Cross311×Trop2, Cross312×Trop2, Cross313×Trop2, Cross314×Trop2, Cross316×Trop2, Cross317×Trop2, Cross318×Trop2, Cross323×Trop2, Cross325×Trop2, Cross326×Trop2, Cross3×PDL1, Cross313×PDL1, Cross316×PDL1, Cross325×PDL1, and control hIgG1LALA (purchased from Bio-Tech) were added and incubated at 4° C. for 30 min. 1 ml of PBS was added to the EP tube, followed by centrifugation at 3500 rpm for 5 min at 4° C. The supernatant was discarded, and the system was washed again with PBS. After centrifugation, the supernatant was discarded, and the cells were resuspended with PBS at 100 μl/tube. 1 μl/tube Alexa-647-labeled goat anti-human IgG secondary antibody (purchased from Jackson lab) and 0.5 μl/tube PerCP-Cy5.5-labeled anti-human CD8 antibody were added and incubated at 4° C. in the dark for 30 min. The cells were washed twice with PBS. After centrifugation, the supernatant was discarded. The cells were resuspended with 200 μl/tube of PBS and assay is performed by flow cytometry.

T1 sequence (chain, as listed by the source limits assumed, chain 1 of 2): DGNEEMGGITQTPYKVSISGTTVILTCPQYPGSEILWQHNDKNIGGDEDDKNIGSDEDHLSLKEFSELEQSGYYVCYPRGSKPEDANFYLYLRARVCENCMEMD
T1 sequence (P04234 22-105 limits assumed, chain 2 of 2): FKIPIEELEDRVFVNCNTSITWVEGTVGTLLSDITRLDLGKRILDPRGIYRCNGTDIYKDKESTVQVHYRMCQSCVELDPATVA
T2 sequence (P07766 23-207 limits assumed): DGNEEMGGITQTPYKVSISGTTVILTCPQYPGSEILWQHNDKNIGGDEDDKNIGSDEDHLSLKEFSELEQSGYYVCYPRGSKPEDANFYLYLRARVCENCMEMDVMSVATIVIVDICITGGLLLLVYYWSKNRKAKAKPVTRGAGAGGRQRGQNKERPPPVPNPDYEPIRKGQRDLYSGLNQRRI
T3 sequence (Q9NZQ7 19-290 limits assumed): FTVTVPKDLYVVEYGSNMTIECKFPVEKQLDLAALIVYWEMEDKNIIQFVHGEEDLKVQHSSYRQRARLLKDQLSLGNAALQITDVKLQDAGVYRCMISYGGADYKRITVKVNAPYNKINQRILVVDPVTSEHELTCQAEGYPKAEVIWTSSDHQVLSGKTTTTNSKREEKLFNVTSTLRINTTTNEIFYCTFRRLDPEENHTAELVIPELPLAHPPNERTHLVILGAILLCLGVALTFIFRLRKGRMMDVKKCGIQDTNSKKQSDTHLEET
T4 sequence (Q9NZQ7 19-238 limits assumed): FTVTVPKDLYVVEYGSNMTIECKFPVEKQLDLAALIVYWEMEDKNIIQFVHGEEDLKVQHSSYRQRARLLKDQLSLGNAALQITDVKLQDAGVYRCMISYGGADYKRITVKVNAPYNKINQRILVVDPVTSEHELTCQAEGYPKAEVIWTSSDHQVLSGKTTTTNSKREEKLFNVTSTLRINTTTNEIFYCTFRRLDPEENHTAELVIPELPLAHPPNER

Binder	EC50 (read off the curve) (CD3E&D protein [1]) [µg/mL]	EC50 (read off the curve) (CD3 on CD8 T cells [2]) [µg/mL]	EC50 (read off the curve) (CD3 on CD8 T cells [3]) [µg/mL]	Fold change (CD3E&D protein [4])	Kd (CD3E&D protein [4]) [nM]	koff (CD3E&D protein [4]) [s⁻¹]	kon (CD3E&D protein [4]) [M⁻¹ s⁻¹]	EC50 (read off the curve) [5] [µg/mL]	EC50 (read off the curve) (PDL1 protein) [µg/mL]	EC50 (read off the curve) (CD3E&D protein [6]) [µg/mL]	EC50 (read off the curve) (CD3 on CD8 T cells [7]) [µg/mL]
Cross317 (antibody, human IgG1, kappa, V domains shown) VH: EVQLLESGGGLVQPGGSLKLSCAASGFTFNTYAMNWVRQAPGKGLEWVARIRSKYNNYATYYADSVKDRFTISRDDSKNTAYLQMNNLKTEDTAVYYCVRHGNFGNSYVSWFAGWGQGTLVTVSS VL: ELVVTQEPSLTVSPGGTVTLTCRSSTGAVTTSNYANWVQQKPGQAPRGLIGGTNKRAPGTPARFSGSLLGGKAALTLSGVQPEDEAEYYCALWYSNLWVFGGGTKLTVLR	~0.03	~2	~0.5	16.2	2.68	0.00761	2.84e+06	–	–	–	–
Cross316×PDL1 (bispecific antibody, human IgG1, kappa, L234A L235A) scFv: not shown heavy: QVQLVQSGAEVKKPGASVKVSCKASGYSFTGYYMHWVRQAPGQGLEWIGRINPYNGATTYSQNFKDRATMTVDTSISTAYMELSRLRSDDTAVYYCVPTGMGYFLMDYWGQGTLVTVSSASTKGPSVFPLAPSSKSTSGGTAALGCLVKDYFPEPVTVSWNSGALTSGVHTFPAVLQSSGLYSLSSVVTVPSSSLGTQTYICNVNHKPSNTKVDKKVEPKSCDKTHTCPPCPAPEAAGGPSVFLFPPKPKDTLMISRTPEVTCVVVDVSHEDPEVKFNWYVDGVEVHNAKTKPREEQYNSTYRVVSVLTVLHQDWLNGKEYKCKVSNKALPAPIEKTISKAKGQPREPQVCTLPPSREEMTKNQVSLSCAVKGFYPSDIAVEWESNGQPENNYKTTPPVLDSDGSFFLVSKLTVDKSRWQQGNVFSCSVMHEALHNHYTQKSLSLSPGK light: DIQLTQSPSFLSASVGDRVTITCKASQDVGSAVVWYQQKPGKAPKLLIYWASTRHTGVPSRFSGSGSGTEFTLTISSLQPEDFATYFCQQFTSYPTFGQGTKLEIKRTVAAPSVFIFPPSDEQLKSGTASVVCLLNNFYPREAKVQWKVDNALQSGNSQESVTEQDSKDSTYSLSSTLTLSKADYEKHKVYACEVTHQGLSSPVTKSFNRGEC	–	–	–	–	–	–	–	~1	~0.2	~0.8	~0.2
